From patent US8071348B2, “Protein tyrosine phosphatase substrate-trapping double mutant and uses thereof” (Albert Einstein College of Medicine of Yeshiva University, priority 2002, dated 2011) come the findings set out here.

Test [1] deals with T1, Ac-Asp-Ala-Asp-Glu-F2Pmp-Leu-NH2.
T1 construct: Synthetic hexapeptide printed in three-letter code; also called F2Pmp-containing peptide; non-hydrolyzable substrate analog
T1 peptide: Ac-DADE[F2Pmp]L-NH2
Description: ITC. As to the method:
All isothermal titration calorimetry experiments were performed using an MCS Isothermal Titration Calorimetry System from Microcal Inc. (Northampton, Mass.). Experiments at pH 7.0 were conducted at 25° C., in 50 mM 3,3-dimethylglutarate buffer containing 1 mM DTT. The ionic strength of the buffer was adjusted to 0.15 M by addition of NaCl. Protein concentration in the calorimeter cell was 27-85 µM, while the ligand concentration in the syringe was 0.37-1 mM.
A typical titration curve and binding isotherm for the binding of D181A/Q262A to Ac-Asp-Ala-Asp-Glu-F_2Pmp-Leu-NH_2 is shown in FIG. 3. From curve-fitting of the binding isotherms, the stoichiometry for the binding of the peptide to D181A/Q262A was determined to be 1:1.
For orientation: ITC needs no label: the signal is the heat of the interaction.

A further test has as its system EGF receptor. Description: Substrate pull-down: anti-HA immunoprecipitation of PTP1B forms from EGF-treated COS1 cells, anti-pTyr/anti-EGFR blot. In kind it is cell-based, Monkey. The method, then: FIG. 5 illustrates immunoprecipitation (IP) and Western blots (WB) of the phospho-EGF receptor, and other less abundant PTP1B substrates, by the PTP1B substrate-trapping mutants. Wild-type PTP1B, D181A, D181A/Q262A, D181A/C215S, C215S, or blank vector (pJ3H) was used to transfect COS1 cells (4 μg plasmid/60 mm dish). The cells were maintained at 37° C. for 44-48 h. Twenty minutes before harvesting the cells, 20 ng/ml EGF was added to each dish. The PTP1B proteins were precipitated from the cell lysates using anti-hemagglutinin (anti-HA) antibody-conjugated agarose beads from the cell lysates (500 μg total protein) at 4° C. overnight. The beads were washed 3 times with the lysis buffer, mixed with 2×SDS sample buffer, and then boiled for 5 min. The immunocomplexes were resolved by SDS-PAGE, and transferred onto a nitrocellulose membrane. The membrane was probed with anti-pTyr HRP-conjugated antibody (lower panel). The membrane was then stripped and reblotted with anti-EGFR rabbit polyclonal antibody (middle panel). Thereafter, the membrane was further stripped, and re-probed with anti-HA HRP conjugate (upper panel).
The hemagglutinin-tagged (HA-tagged) full-length human wild-type PTP1B in pJ3H expression vector was a gift from Dr. Chemoff (30). The HA-tagged PTP1B mutants, C215S, D181A, D181A/C215S, and D181A/Q262A, were generated by PCR reactions, according to the standard procedure of the Quick-Change™ site-directed mutagenesis kit (Stratagene), using pJ3H-HA-PTP1B as a template. All mutations were verified by DNA sequencing.
Monkey kidney COS1 cells (ATCC: CRL-1650) were maintained in Dulbecco's modified Eagle's minimum essential medium (DMEM), supplemented with 10% fetal bovine serum (Life Technologies, Inc.), penicillin (50 units/ml), streptomycin (50 μg/ml), and L-glutamine (2 mM) under a humidified atmosphere containing 5% CO2. […] The efficiency of transfection, as assessed by 5-bromo-4-chloro-3-indolyl-β-D galactoside (X-Gal) staining of pCMV-β-gal-transfected (β-Gal staining kit, Invitrogen) COS cells, was 25%. […]

[ ]: non-standard residue; d: D form. F2Pmp = N[C@@H](Cc1ccc(C(F)(F)P(=O)(O)O)cc1)C(=O)O

B1: PTP1B/D181A/Q262A, catalytic domain (residues 1 to 321) (enzyme, human, UniProt P18031 1-321, looked up)
chain: MEMEKEFEQIDKSGSWAAIYQDIRHEASDFPCRVAKLPKNKNRNRYRDVSPFDHSRIKLHQEDNDYINASLIKMEEAQRSYILTQGPLPNTCGHFWEMVWEQKSRGVVMLNRVMEKGSLKCAQYWPQKEEKEMIFEDTNLKLTLISEDIKSYYTVRQLELENLTTQETREILHFHYTTWPAFGVPESPASFLNFLFKVRESGSLSPEHGPVVVHCSAGIGRSGTFCLADTCLLLMDKRKDPSSVDIKKVLLEMRKFRMGLIATADQLRFSYLAVIEGAKFIMGDSSVQDQWKELSHEDLEPPPEHIPPPPRPPKRILEPHN
notes: range 1-321; Used in vitro (ITC, kinetics); also called PTP1B substrate-trapping double mutant
Consider B1, for which the “fold higher substrate-binding affinity than PTP1B/C215S” value in test [1] was found to be 28 fold. Further, in the test on EGF receptor, the “affinity for EGFR in in vivo substrate-trapping experiments, versus PTP1B/D181A or PTP1B/C215S” value was “much higher affinity”. Moreover, in the test on EGF receptor (EGF 20 ng/ml for 20 min, anti-HA immunoprecipitation (FIG. 5)), the “quantity of tyrosine-phosphorylated EGF receptor co-precipitated, fold greater than with D181A” value is listed as “more than 3 fold”. In addition, the “trapping of other tyrosine phosphorylated proteins (P160, P120, P70, P60)” value in the test on EGF receptor (anti-HA immunoprecipitation, not visible in D181A or C215S samples (FIG. 5)) is “trapped several novel, less-abundant tyrosine phosphorylated proteins”.
